According to patent WO2022065344A1 (dated 2022):

T1: gp46 partial peptide 188-199 with P192 replaced by Ala (HTLV-1)
T1 peptide: PPLLAHSNLDHI

T2: gp46 partial peptide 188-199 with S194 replaced by Ala (HTLV-1)
T2 peptide: PPLLPHANLDHI

T3: gp46 partial peptide 188-199 with L196 replaced by Ala (HTLV-1)
T3 peptide: PPLLPHSNADHI

T4: gp46 partial peptide 188-199 with H193 replaced by Ala (HTLV-1)
T4 peptide: PPLLPASNLDHI

T5: gp46 partial peptide 188-199 with N195 replaced by Ala (HTLV-1)
T5 peptide: PPLLPHSALDHI

T6: gp46 partial peptide 188-199 with L191 replaced by Ala (HTLV-1)
T6 peptide: PPLAPHSNLDHI

T7: HTLV-1 envelope protein gp62 extracellular region (gp46), expressed in 293T cells together with GLUT1 (HTLV-1, UniProt P03381 21-312)
T7 construct: also called HTLV-1-expressing cells; gp62-expressing cells
T7 sequence: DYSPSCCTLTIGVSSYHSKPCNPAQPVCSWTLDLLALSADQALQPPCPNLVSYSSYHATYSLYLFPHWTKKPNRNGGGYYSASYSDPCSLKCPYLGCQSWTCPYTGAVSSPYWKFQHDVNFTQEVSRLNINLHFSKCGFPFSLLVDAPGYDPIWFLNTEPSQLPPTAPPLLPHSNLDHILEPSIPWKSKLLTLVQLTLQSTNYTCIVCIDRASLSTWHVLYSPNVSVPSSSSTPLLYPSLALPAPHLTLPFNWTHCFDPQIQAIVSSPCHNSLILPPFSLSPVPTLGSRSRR

T8: HTLV-1 gp46 peptide 180-204 (HTLV-1)
T8 construct: also called HTLV-1 gp46 peptide 180 to 204; gp46 antigen peptide
T8 peptide: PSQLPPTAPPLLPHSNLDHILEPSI


How the values were obtained:
[1] = molecular target: T1, gp46 partial peptide 188-199 with P192 …; assay: ELISA on Ala-substituted gp46 188-199 peptides
[2] = molecular target: T2, gp46 partial peptide 188-199 with S194 …; assay: ELISA on Ala-substituted gp46 188-199 peptides
[3] = molecular target: T3, gp46 partial peptide 188-199 with L196 …; assay: ELISA on Ala-substituted gp46 188-199 peptides
[4] = molecular target: T4, gp46 partial peptide 188-199 with H193 …; assay: ELISA on Ala-substituted gp46 188-199 peptides
[5] = molecular target: T5, gp46 partial peptide 188-199 with N195 …; assay: ELISA on Ala-substituted gp46 188-199 peptides
[6] = molecular target: T6, gp46 partial peptide 188-199 with L191 …; assay: ELISA on Ala-substituted gp46 188-199 peptides
[7] = molecular target: T7, HTLV-1 envelope protein gp62 …; assay: flow cytometry on 293T cells transfected with HTLV-1 and GLUT1 vectors against pcDNA3.1 control cells
[8] = molecular target: T8, HTLV-1 gp46 peptide 180-204; assay: SPR, Biacore T200, antibody amine-coupled on CM5 chip, peptide as analyte, affinity (steady-state) analysis

Binder | binding result [1] | binding result [2] | binding result [3] | binding result [4] | binding result [5] | binding result [6] | binding result [7] | Kd [8]
humanized anti-HTLV-1 antibody hMAb1_H1L12 (antibody, human IgG1, kappa, V domains shown, Human IgG1, kappa) VH: EVQLVESGGGLVQPGGSLRLSCAASGFTFGGFPMAWVRQAPGKGLEWVSTISPGAVNTYYADSVKGRFTISRDNSKNTLYLQMNSLRAEDTAVYYCAREGYGFSSFEYWGQGTLVTVSS VL: DIQMTQSPSSLSASVGDRVTITCKSSQTLLYSGNQKNYLAWYQQKPGKAPKLLISWASTRQSGVPSRFSGSGSGTDFTLTISSLQPEDFATYYCQQYFATPITFGQGTKVEIKR | binds | binds | binds | binds | binds | binds |  | 
rat anti-HTLV-1 monoclonal antibody rMAb98 (antibody, V domains shown) VH: EVQLVESGGGLVQPGWSMKLSCAASGFTFSGSPMGWVRQAPTKGLEWVATISPTGATTYYRDSVKGRFTISRDNAKATLYLQMNSLRSEDTATYYCTREGYGYSSFDYWGQGVMVTVSS VL: DIVMTQSPSSLAVSAGETVTINCKSSQSLLFSGYQKNYLAWYQQKPGQSPRLLIYWASTRQSGVPDRFIGSGSGTDFTLTVSSVQAEDVATYYCQQYFDTPLTFGSGTKLEIKR |  |  |  |  |  |  | binds | 
rat anti-HTLV-1 monoclonal antibody rMAb1 (antibody, V domains shown) VH: EIQLVESGGGLVQPGRSMKLSCEALGFTFGGFPMAWVRQAPTKGLEWVATISPGAVNTYYGDSVKGRFTISRDNAKSTLYLQMNSLRSEDTATYYCVREGYGFSSFEYWGQGVTVTVSP VL: DIVMTQSPSSLAVSAGETVTIKCKSSQTLLYSGNQKNYLAWYQQKPGQSPKLLICWASTRQSSVPDRFIGSGSGTDFTLTISSVQAEDLAIYYCQQYFATPITFGSGTKLEIKR | binds | binds | binds | binds | binds | binds | binds | 3.49 nM
